Data: the RNAGym collection of RNA variant scans (doi:10.1073/pnas.2313332121)
This sample holds only a part of the variants without activity.

B1: TPR 5TU (parent)
chain: GGAUCUUCUCGAUCUAACAAAAAAGACAAAUCUGCCACAAAGCUUGAGAGCAUCUUCGGAUGCAGAGGCGGCAGCCUUCGGUGGCGCGAUAGCGCCAACGUUCUCAACUAUGACACGCAAAACGCGUGCUCCGUUGAAUGGAGUUUAUCAUG

Variants of: B1
Experiment: polymerase ribozyme fitness, log enrichment relative to wild type (log ratio); higher = more active; in vitro selection for triplet polymerase activity
Procedure, shortened: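 Both subunits of a heterodimeric triplet polymerase ribozyme were given their own mutant library, built by PCR and transcribed. Each library was annealed with a biotinylated primer, the partner subunit and triplets, incubated frozen at −7 °C, and its extended constructs gel-excised, captured on streptavidin beads and amplified by RT-PCR, all in one round done in triplicate. Fitness is the logarithm of genotype enrichment relative to wild-type enrichment, with replicates averaged by inverse-variance weighting. That logarithm is base 2, and Illumina-sequenced genotypes needed ≥10 input reads and ≥1 read per output.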

Point of comparison: G58A C87U A89U A106U, “polymerase ribozyme fitness (log ratio)” value -2.54. Against it:
- U82C A89C C96U U101G A115C — higher, -1.01
- G71A G92U — within 0.2 log units, -2.6
- C116U A120G — higher, -0.0851
- A22U A29U A39U U55A C79A C93G — lower, ≤ -4.2
- A17C C85G G94A C123A G124U — higher, -1.12
- C10U U15G G58U A73G G83A A91C C95U U134C — lower, ≤ -4.2
- G42C G143C — lower, ≤ -4.2
- G84U U102G A110G — lower, ≤ -4.2
- U82A C96A A110G A137G — lower, -3.99
- G34U U55A A60C A73C C85U G136C U144A — lower, ≤ -4.2
- U6G A52C U55C G71A G86C A119U — lower, ≤ -4.2
- C8U U15G U44A C54U G84A U101G A110U A115G G133U — lower, ≤ -4.2
- C125G U145G — within 0.2 log units, -2.69
- A41C U53A G58A C63U G94A A107G — lower, ≤ -4.2
- A26U G92U — within 0.2 log units, -2.66
- U33G C85U U139G — lower, -3.72
- U9G U90C U148G — lower, ≤ -4.2
- A17G A39U C54G A64C A89C U90G A122U U139C U144A — lower, ≤ -4.2
- U33C G42A C93U C108U — lower, ≤ -4.2
- C75U C85U U135G U146A — lower, -3.82
- G133U G141U — within 0.2 log units, -2.6
- A28U U82G A137C — lower, ≤ -4.2
- U134A G141C — lower, -3.42
- G46C G83C G88C A97G — lower, ≤ -4.2
- A3C U31G U53A U55A C96A A115G G126A A142C — lower, ≤ -4.2
- C8U A21U A28C A52U G94U C95G A97C A122U G126U G136A — lower, ≤ -4.2
- A3G C51G U56A G92U C118U U145C — lower, ≤ -4.2
- A29U G92C C95U A106C C114U G128U A138G — lower, ≤ -4.2
- C54G G81A C95U — higher, -2.33
- C38A C93A C131G A150U — lower, ≤ -4.2
- G81U U90C C99A A142G — lower, ≤ -4.2
- U102G U146G — lower, -4.17
- A39U G84A C123G — lower, -2.9
- A21G C75U — higher, 0.894
- A20U U78A C95U — lower, ≤ -4.2
- C27U A29C U44A U55A C95G G117U — lower, ≤ -4.2
- C93U G140C — lower, -3.57
- A40G A98G A113C — lower, ≤ -4.2
- C54A G86U A97G — lower, ≤ -4.2
- C87U G92U A97U C99G — lower, ≤ -4.2
- U6A C10G C75G U78C C96G A97G U102G — lower, ≤ -4.2
- A30U U56G G58U A73G C85U C105U G141C — lower, ≤ -4.2
- C57G U82A C95G U134C — higher, -1.35
- A106G G141U — higher, 2.01
- A64C C72G A91C A106U U109G C123A U148C — lower, ≤ -4.2
- C8U A17G A39G G84U C116A C118G U139C — lower, ≤ -4.2
- C38A C57A G83A — higher, -0.895
- C8U A39U G48U U134A — lower, ≤ -4.2
- C54A G71A G88C A110G — lower, ≤ -4.2
- C85A C96U — within 0.2 log units, -2.63
- A17C C96U A107C — lower, -3.77
- U55G G86U C95U — higher, -0.739
- G62A C103A G152A — lower, -3.85
- U61A C87U A147C — lower, -3.49
- C51U U53A C93A — lower, -4.05
- U77C G92C U139C A150U — lower, ≤ -4.2
- A3U C96U — higher, -0.0857
- G48U U55G — higher, -0.894
- G71C C87G G128A — lower, ≤ -4.2
- U61G G67A G68U C87A A107U G126C C149G — lower, ≤ -4.2
- C27U C54G C87U G92A C118A U144G — lower, -3.12
- A40C G141U — higher, 1.43
- C85G C103A — lower, ≤ -4.2
- U145C — higher, 0.096
- A47C A110U — lower, ≤ -4.2
- A49C G88U A106U — lower, ≤ -4.2
- A22U C54U A107U U134C U145C — lower, -4.02
- G11A U44A G48A C57U C96U — lower, ≤ -4.2
- C96A A107U — lower, -2.87
- C36A G94A A121C — lower, -4.03
- U6A C10A C27G G46C C69A C93U G94C A97C — lower, ≤ -4.2
- C14A A40U C87A G136C — lower, ≤ -4.2
- G42A U55A C85U A97U G140C — lower, ≤ -4.2
- A29C C96A U102G G124U — lower, ≤ -4.2
- A37G C57U G71U G92C C96U A97C A150C U151A — lower, ≤ -4.2
- A47C G88U — lower, -3.96
- U9G A22G U31G A41G A91U C93U U135G — lower, ≤ -4.2
- U53A C69G G83A G117U U145C — lower, -3.13
- C51G C72A C79A G94A — lower, ≤ -4.2
- A40U G83A C95A A115U G128U C129A — lower, ≤ -4.2
- G88U C93A — lower, -3.73
- C57U A147U — higher, 1.47
- A47U G83A U101C G117U — higher, -0.198
- C27U C32U A40U A49C C54U C87U A89U A98U — lower, ≤ -4.2
- U6A G25C G141A U146A — within 0.2 log units, -2.69
- A41C A49G C51A G71U C93A C95U U111G — lower, ≤ -4.2
- C79U C87A C96U A98C G141C — lower, ≤ -4.2
- C27U C96A C105G — lower, -2.96
- A3C C5G C14G A24G A29U C32A U56G G86C U90G C116G A142C — lower, ≤ -4.2
- G48C A89C — higher, -0.506
- C54A C85U C108U — lower, ≤ -4.2
- C43U G58A G86A U90G U144A — lower, ≤ -4.2
- A41U C85U A122G — higher, -1.39
- C5A G74A G81U U139G — lower, -3.53
- A28C G50A A97U G124A A138C — lower, ≤ -4.2
- U6A A22U — higher, 0.00924
- A41U C72G C76U A119G U134G A142U — lower, ≤ -4.2
- A113C G128A — lower, -4.02
- C57A A113G — higher, -1.32
- G128U U139A A142G — lower, -4.07
- C38U C57U A106U U146G — within 0.2 log units, -2.36
- A52C C93U — higher, -2.33
- A26U U44A A97U — lower, ≤ -4.2
- C96G U104G G141U — higher, -1.2
- A21G G124C — higher, -0.489
- C14A A17C U31A C57U C96G — lower, -3.28
- U33A C63U C93A A97G G126C — lower, ≤ -4.2
- G140A U146G — lower, -3.51
- C38U A41U C51U G84A G143A — lower, -3.06
- U4A A17G A47G G68U C69G G88U G124A U127A G128C G140U U145G — lower, ≤ -4.2
- U55G G58C C116U G143A — higher, -1.24
- U53A C54A G58C A64C G126A U135C A138C — lower, ≤ -4.2
- A47C U148G — lower, -3.89
- G50A C54A C87A G128A — lower, ≤ -4.2
- C14U G83A C116A G141A — lower, -3.95
- A64U C93G C114G — lower, ≤ -4.2
- C14G A19G A20C G117A G124C — lower, -3.94
- A20C C38G G70A C87U C108U — lower, ≤ -4.2
- C10A C32G U139G — lower, ≤ -4.2
- C51A — higher, -0.687
- C96U U135C G140U — lower, -3.67
- U31A G58U U146G — higher, -0.274
- C79A — lower, -4.12
- U53A C85A — lower, -4
- G80C G81U — higher, 0.0733
- A19G C54A — higher, -1.26
- C93A G141U — higher, -0.625
- U127G — lower, -3.06
- U55G U104A A122G A137C — lower, ≤ -4.2
- U33G A47G G81A — lower, -4
- A16U G92U C99G — lower, -3.45
- A91G G141U — higher, -1.92
- A21G G59C U102G G124A — lower, -3.04
- U102G G141U — higher, -1.98
- A20U A47C U55A U56G C72U C87A G88C A115G — lower, ≤ -4.2
- A29U G48A A49C C87G — lower, ≤ -4.2
- G42U C57G G58A C85G — lower, ≤ -4.2
- C38A U45A C57A C87G U90G A107U — lower, ≤ -4.2
- C38U U56A A120G G126U U145C U146G — lower, -3.34
- A19G C79G — lower, ≤ -4.2
- U33A G84A — lower, -3.81
- A21C C125A — higher, 0.331
- U53A U55G A64U C75U A91C C116U U144A — lower, ≤ -4.2
- G59U C96U A98U — higher, -0.711
- G124U G141U — higher, 0.513
- U55C A91U U144A — lower, ≤ -4.2
- U55A C85G — lower, -2.99
- C14G A47C A52G A115C A119G — lower, ≤ -4.2
- G136C A142C U146A — within 0.2 log units, -2.66
- G59A C123U G136C C149G — lower, -4.17
- U55G C87U C129G — lower, -3.16
- G59U G94C C99A G128C C129U U130C G140U — lower, ≤ -4.2
- U13G A47U G50A C51U U55A G81C A137U C149A — lower, ≤ -4.2
- C10G A17U A37C C93U — lower, -4.18
- A98U U135A — within 0.2 log units, -2.55
- U145A — higher, 0.192
- G48C G59U G94A A119U — higher, -1.58
- A22C A40C G94A A119G — higher, 0.789
- C57U A107C — lower, -3.3
- U53A A122U A138U — lower, -4.07
- U9A A21G A28C U45A A52C C87A G128A G136U — lower, ≤ -4.2
- C27A A41G C54A C72G C103G G133U G141U U144A U145G — lower, ≤ -4.2
- U56G — higher, -0.573
- C14A C72U — higher, -1.72
- A52G C57G C76U G92U U148A — lower, -4.19
- U56A G80C C93A C95A U102G C114A A150U — lower, ≤ -4.2
